Source: US20090298167A1 (Pfizer, published 2009)
Where two headings read alike, the source gives them in different places.

B1: murine IL-21R-Fc (Fc fusion, not shown: a dimerising Fc or GST)
chain: not shown
B2: AbG (antibody, human IgG1, V domains shown)
VH: QVQLQESGPGLVKPSETLSLTCAVSGYSISSGYYWGWIRQPPGKGLEWIGSISHTGNTYYNPPLKSRVTISVDTSKNQFSLKLSSVTAADTAVYYCARGGGISRPEYWGQGTLVTVSS
VL: SSELTQDPAVSVALGQTVRITCQGDSLRTYYASWYQQKPGQAPVLVIYGKHKRPSGIPDRFSGSSSGNTASLTITGAQAEDEADYYCVTRSVKGNPHVLFGGGTQLTVL
notes: Full-length human IgG1 / human lambda, transient, conditioned medium; Framework limits derived; also called VHP/VL18
B3: AbQ (antibody, human IgG1, V domains shown)
VH: QVQLQESGPGLVKPSETLSLTCAVSGYSISSGYYWGWIRQPPGKGLEWIGSISHTGNTYYNPPLKSRVTISVDTSKNQFSLKLSSVTAADTAVYYCARFMGFGRPEYWGQGTLVTVSS
VL: SSELTQDPAVSVALGQTVRITCQGDSLRTYYASWYQQKPGQAPVLVIYGKHKRPSGIPDRFSGSSSGNTASLTITGAQAEDEADYYCVARSVVGNPHVLFGGGTQLTVL
notes: Purified form: human IgG1 double-mutant (L234A, G237A); Framework limits derived; also called VH3/VL2; VH3DM/VL2
B4: AbU (antibody, human IgG1, V domains shown)
VH: QVQLQESGPGLVKPSETLSLTCAVSGYSISSGYYWGWIRQPPGKGLEWIGSISHTGNTYYNPPLKSRVTISVDTSKNQFSLKLSSVTAADTAVYYCARGGGISRPEYWGQGTLVTVSS
VL: SSELTQDPAVSVALGQTVRITCQGDSLRTYYASWYQQKPGQAPVLVIYGKHKRPSGIPDRFSGSSSGNTASLTITGAQAEDEADYYCTTRSNKGNPHVLFGGGTQLTVL
notes: Human IgG1 triple-mutant (L234A, L235A, G237A); Framework limits derived; also called VHP/VL25; VHPTM/VL25

Key:
murine IL-21 = murine IL-21 (murine, UniProt Q9ES17 18-146); assay: cell-based or functional assay
[1] = target: T1, rat IL-21R expressed on cells (rat); assay: cell ELISA: CHO cells transiently expressing the receptor, antibody in conditioned medium, HRP anti-human IgG, A450
T1 construct: whole, on cells; Transiently transfected CHO-PA-Dukx cells
Method: (§1) A subset of binding proteins was tested for binding to rat, cynomolgus monkey, human IL-21R, or human IL-2R-γ common subunit expressed transiently on the surfaces of CHO-PA-Dukx cells. Cells were transfected 48 hr prior to the assay. On the day of the assay, cells were washed gently 5× in PBS containing 0.9 mM CaCl₂ and 0.45 mM MgCl₂ (PBS/CaMg) on an automated plate washer (Titertek, Huntsville, Ala.), and blocked for 1 hr at RT in PBS/CaMg/5% nonfat dry milk. Conditioned media from transiently expressed anti-IL-21R IgGs were serially diluted in blocking buffer and added to the cells in the blocked plates for 1 hr at RT. Cells were washed 5× with PBS/CaMg and then incubated with horseradish peroxidase-conjugated anti-human IgG for 1 hr at RT. Cells were then washed 10× in PBS/CaMg and all of the wash buffer was removed. Cells were incubated with 100 μl TMB until the color reaction reached saturation, stopped with 100 μl of 0.18 M H₂SO₄, and read at A450 on a Perkin Elmer ENVISION™ plate reader.

[2] = target: T2, murine IL-21R expressed on cells (murine, UniProt Q9JHX3 20-529); assay: cell-based or functional assay
[3] = target: T3, human IL-21R expressed on cells (human, UniProt Q9HBE5 20-538); assay: cell-based or functional assay
[4] = target: T1, rat IL-21R expressed on cells; assay: cell ELISA on transfected CHO cells, 13 nM IgG
[5] = target: T4, human gamma common chain expressed on CHO cells (human, UniProt P31785 23-369); assay: cell ELISA on transfected CHO cells, 13 nM IgG
T4 construct: whole, on cells; Control protein; also called human IL-2R-γ common subunit; human gamma (γ) common chain
T4 sequence (looked up): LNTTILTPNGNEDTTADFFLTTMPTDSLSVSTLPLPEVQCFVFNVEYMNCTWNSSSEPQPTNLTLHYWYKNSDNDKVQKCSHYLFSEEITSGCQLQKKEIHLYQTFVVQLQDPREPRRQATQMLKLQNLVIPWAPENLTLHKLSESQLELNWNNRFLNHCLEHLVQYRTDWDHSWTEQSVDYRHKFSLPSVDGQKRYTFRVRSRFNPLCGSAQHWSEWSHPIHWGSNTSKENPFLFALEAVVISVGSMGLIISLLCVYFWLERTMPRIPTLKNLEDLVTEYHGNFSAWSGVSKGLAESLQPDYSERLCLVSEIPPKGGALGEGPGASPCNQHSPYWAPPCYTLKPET

[6] = target: T3, human IL-21R expressed on cells; assay: cell ELISA on transfected CHO cells, 13 nM IgG
[7] = target: T5, cynomolgus monkey IL-21R expressed on CHO cells (cynomolgus monkey); assay: cell ELISA on transfected CHO cells, 13 nM IgG
T5 construct: whole, on cells

[8] = target: T5, cynomolgus monkey IL-21R expressed on …; assay: cell ELISA: CHO cells transiently expressing the receptor, antibody in conditioned medium, HRP anti-human IgG, A450
Method: as §1

[9] = target: T3, human IL-21R expressed on cells; assay: cell-based or functional assay; remark: listed apart in the source
human IL-2Rβ = target: T6, human IL-2Rβ (human, UniProt P14784 27-239); assay: BIACORE: antibody captured on anti-human IgG, 50 nM analyte injected
T6 construct: Bought
T6 sequence (looked up): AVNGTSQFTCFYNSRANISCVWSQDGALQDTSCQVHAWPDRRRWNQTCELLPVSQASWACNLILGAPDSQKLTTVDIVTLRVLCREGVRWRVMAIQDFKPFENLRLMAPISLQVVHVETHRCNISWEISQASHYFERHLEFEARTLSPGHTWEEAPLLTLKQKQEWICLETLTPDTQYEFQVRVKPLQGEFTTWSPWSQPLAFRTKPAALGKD
Method: (§2) The specificity of binding of a subset of transiently expressed anti-IL-21R binding proteins (here antibodies) was tested on a BIACORE™ 2000 surface plasmon resonance instrument. Anti-human-IgG, anti-murine immunoglobulin antibodies, and murine IL-21R-H/F were immobilized onto a research-grade carboxymethyl-dextran chip (CM5) using standard amine coupling. The sensor chip surface was activated with EDC/NHS for 7 min at a flow rate of 20 μl/min. The first flow cell was used as reference surface to correct for bulk refractive index, matrix effects, and nonspecific binding. […] Remaining activated groups were blocked with 1.0 M ethanolamine (pH 8.0). The molecular weights of the anti-human IgG and the anti-murine IgG were both 150 kD, and the molecular weight of the IL-21R monomer was 27 kD.
(§3) Conditioned media containing anti-IL-21R antibodies and antibody controls (murine anti-human IL-2Rβ and murine anti-human IL-4R(R&D Systems, Minneapolis, Minn.); human anti-human IL-13 (Wyeth, Cambridge, Mass.)) were diluted in HBS/EP buffer supplemented with 0.2% bovine serum and injected onto all four flow cells of the BIACORE™ chip, capturing 500-700 (RU) of antibody on the species-appropriate capture antibody. Following a 5 sec washing period, 50 nM solutions of a positive control protein (murine IL-21R-H/F), two human proteins related to IL-21R (human IL-2Rβ and human sIL-4R(R&D Systems)), or an unrelated His/FLAG-tagged protein (human IL-13-H/F), were injected over the captured antibodies on the chip. The association and dissociation phases were monitored for 120 and 180 sec, respectively, followed by two 5 μl injections of glycine (pH 1.5) to regenerate a fully active capturing surface. All binding experiments were done at 25° C. in HBS/EP buffer. Blank and buffer effects were subtracted for each sensorgram using double referencing.

human soluble IL-4R = target: T7, human soluble IL-4R (human, UniProt P24394 26-231, limits assumed); assay: as above
T7 construct: soluble; also called human sIL-4R
Method: as §2, §3

human IL-13-His/FLAG = target: T8, human IL-13-His/FLAG (human, UniProt P35225 35-146, limits assumed); assay: as above
T8 construct: Unrelated His/FLAG-tagged control; also called human IL-13-H/F
Method: as §2, §3

[10] = target: T2, murine IL-21R expressed on cells; assay: cell-based or functional assay; remark: listed apart in the source
[11] = target: T3, human IL-21R expressed on cells; assay: cell-based or functional assay; remark: listed apart in the source
[12] = target: T1, rat IL-21R expressed on cells; assay: cell-based or functional assay
[13] = target: T5, cynomolgus monkey IL-21R expressed on …; assay: cell ELISA: CHO cells transiently expressing the receptor, antibody in conditioned medium, HRP anti-human IgG, A450; remark: listed apart in the source
Method: FIG. 6 depicts the binding of 21 anti-IL-21R IgGs to CHO cells transiently expressing human IL-21R (FIGS. 6a-c), rat IL-21R (FIGS. 6d-f), cynomolgus monkey IL-21R (FIGS. 6g-i), and human gamma common chain (FIGS. 6j-l). CHO cells were transiently transfected with IL-21R or the control gamma common chain, and binding was detected with HRP-conjugated anti-human IgG in a cell-based ELISA.
as §1

T3 sequence (Q9HBE5 20-538 limits assumed): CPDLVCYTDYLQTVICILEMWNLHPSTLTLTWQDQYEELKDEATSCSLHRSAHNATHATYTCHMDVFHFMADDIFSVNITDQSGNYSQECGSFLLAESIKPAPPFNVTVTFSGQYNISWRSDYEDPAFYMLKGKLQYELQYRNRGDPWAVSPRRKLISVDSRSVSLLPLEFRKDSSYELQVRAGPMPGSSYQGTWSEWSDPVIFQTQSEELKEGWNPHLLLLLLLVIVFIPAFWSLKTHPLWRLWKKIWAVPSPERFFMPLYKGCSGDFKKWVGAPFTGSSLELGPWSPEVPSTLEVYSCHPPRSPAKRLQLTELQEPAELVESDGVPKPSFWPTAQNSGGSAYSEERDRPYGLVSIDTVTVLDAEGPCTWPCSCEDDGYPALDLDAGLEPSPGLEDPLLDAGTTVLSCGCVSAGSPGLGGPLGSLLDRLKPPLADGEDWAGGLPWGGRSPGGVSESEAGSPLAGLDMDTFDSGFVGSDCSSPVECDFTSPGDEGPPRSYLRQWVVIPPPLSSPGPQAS
T2 sequence (Q9JHX3 20-529 limits assumed): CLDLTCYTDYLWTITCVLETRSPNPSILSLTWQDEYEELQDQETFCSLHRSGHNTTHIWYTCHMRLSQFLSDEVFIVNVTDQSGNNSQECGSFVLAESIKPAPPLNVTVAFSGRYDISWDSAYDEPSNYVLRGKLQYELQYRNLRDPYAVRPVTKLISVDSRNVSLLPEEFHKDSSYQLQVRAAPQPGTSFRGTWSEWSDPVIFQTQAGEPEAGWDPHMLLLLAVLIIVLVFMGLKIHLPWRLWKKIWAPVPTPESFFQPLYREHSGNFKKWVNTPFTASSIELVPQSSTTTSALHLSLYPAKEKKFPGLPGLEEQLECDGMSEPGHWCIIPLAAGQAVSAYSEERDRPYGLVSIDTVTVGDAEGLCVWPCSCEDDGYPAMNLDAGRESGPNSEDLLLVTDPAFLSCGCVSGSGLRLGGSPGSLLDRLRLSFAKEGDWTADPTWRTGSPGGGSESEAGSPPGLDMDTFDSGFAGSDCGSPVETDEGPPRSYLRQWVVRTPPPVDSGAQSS
T7 sequence (P24394 26-231 limits assumed): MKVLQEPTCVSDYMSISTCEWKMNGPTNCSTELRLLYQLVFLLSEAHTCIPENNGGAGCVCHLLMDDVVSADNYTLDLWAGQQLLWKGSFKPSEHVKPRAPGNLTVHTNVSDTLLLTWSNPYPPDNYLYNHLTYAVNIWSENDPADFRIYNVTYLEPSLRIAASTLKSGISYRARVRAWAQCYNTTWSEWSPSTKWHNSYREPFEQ
T8 sequence (P35225 35-146 limits assumed): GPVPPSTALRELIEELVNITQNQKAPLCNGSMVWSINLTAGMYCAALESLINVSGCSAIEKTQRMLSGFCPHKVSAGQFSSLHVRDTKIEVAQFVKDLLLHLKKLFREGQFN

Row | Binder | Murine IL-21R-BaF3 Neutralization IC50 (murine IL-21) [nM] | EC50 (read off the curve) [1] [nM] | Murine IL-21R-BaF3 Proliferation IC50 [2] [nM] | Human IL-21R-BaF3 Proliferation IC50 [3] [nM] | Human IL-21R-TF1 Proliferation IC50 [3] [nM] | A450 at 13 nM Ab in cell ELISA [4] [A450] | A450 at 13 nM Ab in cell ELISA [5] [A450] | A450 at 13 nM Ab in cell ELISA [6] [A450] | A450 at 13 nM Ab in cell ELISA [7] [A450] | EC50 (read off the curve) [8] [nM] | Neutralization of B cell proliferation IC50 [9] [nM] | binding result (human IL-2Rβ) | binding result (human soluble IL-4R) | binding result (human IL-13-His/FLAG) | Neutralization of T cell Proliferation IC50 (nM), murine primary CD8+ T cells [10] [nM] | Neutralization of T cell Proliferation IC50 (nM), human primary CD4+ T cells [11] [nM] | IC50 (nM) experiment 1, rat T cell proliferation [12] [nM] | IC50 (nM) experiment 2, rat T cell proliferation [12] [nM] | EC50 (read off the curve) [13] [nM]
1 | B1 | 0.04 |  |  |  |  |  |  |  |  |  |  |  |  |  |  |  |  |  | 
2 | B2 |  | ~0.8 | 0.07 | 0.77 | 3.84 | 1.11 | 0.108 | 1.35 | 1.3 |  |  |  |  |  |  |  |  |  | 
3 | B3 |  |  | 0.153 | 0.68 | 4.62 | 1.16 | 0.125 | 1.25 | 1.31 | ~0.6 | 0.16 | no binding (tested: 50 nM) | no binding (tested: 50 nM) | no binding (tested: 50 nM) | 0.85 | 0.08 |  |  | 
4 | B4 |  |  | 0.184 | 0.73 | 3.13 | 0.927 | 0.104 | 1.29 | 1.31 |  | 0.13 | no binding (tested: 50 nM) | no binding (tested: 50 nM) | no binding (tested: 50 nM) | 1.79 | 0.03 | 173 | 105 | ~0.8
